According to US20260097113A1 (Pfizer, published 2026):

T1: RSV F protein of subtype A comprising a polypeptide of SEQ ID NO: 1 and a polypeptide of SEQ ID NO: 2 (RSV subtype A, UniProt P11209 137-513; P03420 26-109)
T1 construct: Stabilized prefusion F trimer made of three F2-F1 heterodimers; Produced recombinantly in CHO cells; also called RSV A; RSVA
T1 chain 1: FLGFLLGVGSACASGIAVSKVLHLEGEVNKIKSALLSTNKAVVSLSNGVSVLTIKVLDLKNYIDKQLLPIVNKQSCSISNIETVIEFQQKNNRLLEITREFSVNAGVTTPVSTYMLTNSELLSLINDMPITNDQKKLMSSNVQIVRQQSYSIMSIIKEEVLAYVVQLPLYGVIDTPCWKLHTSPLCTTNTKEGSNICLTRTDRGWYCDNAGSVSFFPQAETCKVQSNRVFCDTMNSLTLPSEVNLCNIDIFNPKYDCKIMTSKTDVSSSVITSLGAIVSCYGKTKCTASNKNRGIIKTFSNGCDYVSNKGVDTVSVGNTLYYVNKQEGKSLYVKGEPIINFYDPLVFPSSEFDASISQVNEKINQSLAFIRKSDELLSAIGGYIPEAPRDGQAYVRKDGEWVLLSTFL
T1 chain 2: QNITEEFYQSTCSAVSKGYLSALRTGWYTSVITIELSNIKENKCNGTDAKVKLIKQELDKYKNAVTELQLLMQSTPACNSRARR

B1: AM14 (trimeric prefusion specific antibody of the AM14 ELISA) (antibody, V domains shown)
VH: EVQLVESGGGVVQPGRSLRLSCAASGFSFSHYAMHWVRQAPGKGLEWVAVISYDGENTYYADSVKGRFSISRDNSKNTVSLQMNSLRPEDTALYYCARDRIVDDYYYYGMDVWGQGATVTVSS
VL: DIQMTQSPSSLSASVGDRVTITCQASQDIKKYLNWYHQKPGKVPELLMHDASNLETGVPSRFSGRGSGTDFTLTISSLQPEDIGTYYCQQYDNLPPLTFGGGTKVEIKR
notes: Antibody as used in the AM14 ELISA, detected with an HRP-labeled secondary antibody

Assays:
[1] = biological target: RSV A + RSV B bivalent composition (RSV subtype A; RSV subtype B); experiment: AM14 Fab titration by SEC; Low-Fast cycle; 1 M 25°C
[2] = biological target: RSV A + RSV B bivalent composition (RSV subtype A; RSV subtype B); experiment: AM14 Fab titration by SEC; Low-Fast cycle; 3 M 25°C
[3] = biological target: RSV A + RSV B bivalent composition (RSV subtype A; RSV subtype B); experiment: AM14 Fab titration by SEC; Target cycle; 1 M 40°C
[4] = biological target: RSV A + RSV B bivalent composition (RSV subtype A; RSV subtype B); experiment: AM14 Fab titration by SEC; High-Slow 1 cycle; 1 M 25°C
[5] = biological target: RSV A + RSV B bivalent composition (RSV subtype A; RSV subtype B); experiment: AM14 Fab titration by SEC; Target cycle; T0 (second value)
[6] = biological target: RSV A + RSV B bivalent composition (RSV subtype A; RSV subtype B); experiment: AM14 Fab titration by SEC; Low-Fast cycle; 1 M 40°C
[7] = biological target: RSV A + RSV B bivalent composition (RSV subtype A; RSV subtype B); experiment: AM14 Fab titration by SEC; composition of Table 14; Freezing Ramp Aggressive cycle
[8] = biological target: RSV A + RSV B bivalent composition (RSV subtype A; RSV subtype B); experiment: AM14 Fab titration by SEC; High-Slow 1 cycle; 8 M 2-8°C
[9] = biological target: RSV A + RSV B bivalent composition (RSV subtype A; RSV subtype B); experiment: AM14 Fab titration by SEC; Target cycle; 1 M 25°C
[10] = biological target: RSV A + RSV B bivalent composition (RSV subtype A; RSV subtype B); experiment: AM14 Fab titration by SEC; Low-Fast cycle; 1 M 2-8°C (second value)
[11] = biological target: RSV A + RSV B bivalent composition (RSV subtype A; RSV subtype B); experiment: AM14 Fab titration by SEC; composition of Table 17; Pre-lyo Prep 1, T0
[12] = biological target: RSV A + RSV B bivalent composition (RSV subtype A; RSV subtype B); experiment: AM14 Fab titration by SEC; High-Slow 2 cycle; 1 M 40°C
[13] = biological target: RSV A + RSV B bivalent composition (RSV subtype A; RSV subtype B); experiment: AM14 Fab titration by SEC; Target cycle; 1 M 2-8°C
[14] = biological target: T1, RSV F protein of subtype A comprising a …; experiment: AM14 ELISA; F9 (pH 8, 50 mM NaCl, 4.5% sucrose); 1 wk 5°C
[15] = biological target: T1, RSV F protein of subtype A comprising a …; experiment: AM14 ELISA; F2 (pH 8, 0 mM NaCl, 0% sucrose); T0
[16] = biological target: T1, RSV F protein of subtype A comprising a …; experiment: AM14 ELISA; F13 (pH 7, 100 mM NaCl, 4.5% sucrose); 2 wk 25°C
[17] = biological target: T1, RSV F protein of subtype A comprising a …; experiment: AM14 ELISA; F10 (pH 7, 50 mM NaCl, 4.5% sucrose); T0
[18] = biological target: T1, RSV F protein of subtype A comprising a …; experiment: AM14 ELISA; F15 (pH 6, 0 mM NaCl, 9% sucrose); 2 wk 5°C
[19] = biological target: T1, RSV F protein of subtype A comprising a …; experiment: AM14 ELISA; F3 (pH 8, 0 mM NaCl, 9% sucrose); 2 wk 5°C
[20] = biological target: T1, RSV F protein of subtype A comprising a …; experiment: AM14 ELISA; F5 (pH 6, 100 mM NaCl, 9.0% sucrose); 1 wk 25°C

Molecule	Prefusion Content (%) [1]	Prefusion Content (%) [2]	Prefusion Content (%) [3]	Prefusion Content (%) [4]	Prefusion Content (%) [5]	Prefusion Content (%) [6]	Prefusion Content (%) [7]	Prefusion Content (%) [8]	Prefusion Content (%) [9]	Prefusion Content (%) [10]	Prefusion Content (%) [11]	Prefusion Content (%) [12]	Prefusion Content (%) [13]	AM14 prefusion content (%), relative to standard [14]	AM14 prefusion content (%), relative to standard [15]	AM14 prefusion content (%), relative to standard [16]	AM14 prefusion content (%), relative to standard [17]	AM14 prefusion content (%), relative to standard [18]	AM14 prefusion content (%), relative to standard [19]	AM14 prefusion content (%), relative to standard [20]
AM14 Fab	63%	66%	64%	51%	77%	65%	62%	69%	65%	53%	85%	52%	59%							
B1														94%	86%	37%	104%	84%	70%	97%
